Tests used:
[1] = tested on: G-CSF; assay: Example 16 lipid nanoparticle in vivo study, serum G-CSF ELISA; parameters: species or system mice; conditions: for G-CSF Serum Concentration 8-12 hours after administration: IV (LNP); for G-CSF Protein Expression, Conc: mice IV LNP, serum 8 hrs
Protocol: Mice were sacrificed at 8 hrs after dosing. […] Protein expression was determined by ELISA.
As used in Table 30, the symbol “˜” means about.

[2] = tested on: hematocrit (HCT); assay: Example 22 non-human primate study, hematocrit (HCT); format: in vivo, cynomolgus monkey
Protocol: LNP formulations, shown in Table 31 (above), were administered to non-human primates (NHP) (cynomolgus monkey) (n=2) as intravenous injection (IV). The NHP were administered a single modified mRNA IV dose of 0.5 mg/kg, 0.05 mg/kg or 0.005 mg/kg of G-CSF or EPO in a dose volume of 0.5 mL/kg. The NHPs were bled before dosing with the modified mRNA LNP formulations to determine protein expression in the serum and a baseline complete blood count. After administration with the G-CSF modified mRNA formulation the NHP were bled at 8, 24, 48 and 72 hours to determined protein expression. After administration with the EPO modified mRNA formulation the NHP were bled at 8, 24, 48, 72 hours and 7 days to determined protein expression.

[3] = tested on: G-CSF; assay: Example 19 LNP formulations in mice, serum G-CSF ELISA; format: in vivo; conditions: for G-CSF Serum Concentration: mice IV (n=4); for G-CSF protein expression detectable at least out to: mice IV
Protocol: Formulations, listed in Table 31, were characterized by particle size, zeta potential, and encapsulation.
LNP formulations, shown in Table 31 (above), were administered to mice (n=4) intravenously (IV) at a single modified mRNA dose 0.05 mg/kg or 0.005 mg/kg. There was also 3 control groups of mice (n=4) that were untreated. The mice were bled at 2 hours, 8 hours, 24 hours, 48 hours and 72 hours after they were administered with G-CSF or EPO modified mRNA formulations to determine the protein expression. Protein expression of G-CSF and EPO were determined using ELISA.

[4] = tested on: mice; assay: Saline formulation: human G-CSF / EPO in mouse serum; format: in vivo; conditions: 100 ug in F. buffer, bled 13 hours after injection, G-CSF group
Protocol: The mice were bled at 13 hours after the injection to determine the concentration of the human polypeptide in serum in pg/mL. (G-CSF groups measured human G-CSF in mouse serum and EPO groups measured human EPO in mouse serum).

B1: G-CSF: human G-CSF mRNA SEQ ID NO: 6, polyA ~160 nt, Cap1, fully modified with 5-methylcytosine and pseudouridine (nucleic acid, listed as Homo sapiens)
chain: GGGAAAUAAGAGAGAAAAGAAGAGUAAGAAGAAAUAUAAGAGCCACCAUGGCCGGUCCCGCGACCCAAAGCCCCAUGAAACUUAUGGCCCUGCAGUUGCUGCUUUGGCACUCGGCCCUCUGGACAGUCCAAGAAGCGACUCCUCUCGGACCUGCCUCAUCGUUGCCGCAGUCAUUCCUUUUGAAGUGUCUGGAGCAGGUGCGAAAGAUUCAGGGCGAUGGAGCCGCACUCCAAGAGAAGCUCUGCGCGACAUACAAACUUUGCCAUCCCGAGGAGCUCGUACUGCUCGGGCACAGCUUGGGGAUUCCCUGGGCUCCUCUCUCGUCCUGUCCGUCGCAGGCUUUGCAGUUGGCAGGGUGCCUUUCCCAGCUCCACUCCGGUUUGUUCUUGUAUCAGGGACUGCUGCAAGCCCUUGAGGGAAUCUCGCCAGAAUUGGGCCCGACGCUGGACACGUUGCAGCUCGACGUGGCGGAUUUCGCAACAACCAUCUGGCAGCAGAUGGAGGAACUGGGGAUGGCACCCGCGCUGCAGCCCACGCAGGGGGCAAUGCCGGCCUUUGCGUCCGCGUUUCAGCGCAGGGCGGGUGGAGUCCUCGUAGCGAGCCACCUUCAAUCAUUUUUGGAAGUCUCGUACCGGGUGCUGAGACAUCUUGCGCAGCCGUGAAGCGCUGCCUUCUGCGGGGCUUGCCUUCUGGCCAUGCCCUUCUUCUCUCCCUUGCACCUGUACCUCUUGGUCUUUGAAUAAAGCCUGAGUAGGAAG
modifications: polyA ~160, Cap1, 5mC/pseudouridine modified
G-CSF Serum Concentration 8-12 hours after administration ([1]; 1 ug): ~20,000 pg/ml
G-CSF Serum Concentration 8-12 hours after administration ([1]; 10 ug): ~1,000,000 pg/ml
G-CSF Serum Concentration 8-12 hours after administration ([1]; 100 ug): ~5,000,000 pg/ml
G-CSF Protein Expression, Conc ([1]; 10 ug): 1204.82 ng/mL
G-CSF Protein Expression, Conc ([1]; 100 ug): 4722.20 ng/mL
HCT ([2]; Female NHP, 0.005 mg/kg, 14/18 days): 0.42 L/L
HCT ([2]; Female NHP, 0.005 mg/kg, 24 hours): 0.42 L/L
HCT ([2]; Female NHP, 0.005 mg/kg, 3 days): 0.41 L/L
HCT ([2]; Female NHP, 0.005 mg/kg, 7 days): 0.42 L/L
HCT ([2]; Female NHP, 0.005 mg/kg, Pre-dose): 0.42 L/L
HCT ([2]; Female NHP, 0.05 mg/kg, 14/18 days): 0.4 L/L
HCT ([2]; Female NHP, 0.05 mg/kg, 24 hours): 0.4 L/L
HCT ([2]; Female NHP, 0.05 mg/kg, 3 days): 0.39 L/L
HCT ([2]; Female NHP, 0.05 mg/kg, 7 days): 0.4 L/L
HCT ([2]; Female NHP, 0.05 mg/kg, Pre-dose): 0.44 L/L
HCT ([2]; Female NHP, 0.5 mg/kg, 14/18 days): 0.37 L/L
HCT ([2]; Female NHP, 0.5 mg/kg, 24 hours): 0.38 L/L
HCT ([2]; Female NHP, 0.5 mg/kg, 3 days): 0.38 L/L
HCT ([2]; Female NHP, 0.5 mg/kg, 7 days): 0.38 L/L
HCT ([2]; Female NHP, 0.5 mg/kg, Pre-dose): 0.43 L/L
HCT ([2]; Male NHP, 0.005 mg/kg, 14/18 days): 0.41 L/L
HCT ([2]; Male NHP, 0.005 mg/kg, 24 hours): 0.4 L/L
HCT ([2]; Male NHP, 0.005 mg/kg, 3 days): 0.4 L/L
HCT ([2]; Male NHP, 0.005 mg/kg, 7 days): 0.39 L/L
HCT ([2]; Male NHP, 0.005 mg/kg, Pre-dose): 0.42 L/L
HCT ([2]; Male NHP, 0.05 mg/kg, 14/18 days): 0.44 L/L
HCT ([2]; Male NHP, 0.05 mg/kg, 24 hours): 0.39 L/L
HCT ([2]; Male NHP, 0.05 mg/kg, 3 days): 0.41 L/L
HCT ([2]; Male NHP, 0.05 mg/kg, 7 days): 0.42 L/L
HCT ([2]; Male NHP, 0.05 mg/kg, Pre-dose): 0.44 L/L
HCT ([2]; Male NHP, 0.5 mg/kg, 14/18 days): 0.34 L/L
HCT ([2]; Male NHP, 0.5 mg/kg, 24 hours): 0.37 L/L
HCT ([2]; Male NHP, 0.5 mg/kg, 3 days): 0.39 L/L
HCT ([2]; Male NHP, 0.5 mg/kg, 7 days): 0.39 L/L
HCT ([2]; Male NHP, 0.5 mg/kg, Pre-dose): 0.46 L/L
G-CSF Serum Concentration ([3]; 0.005 mg/kg, 2 hours): 3,447.8 pg/ml
G-CSF Serum Concentration ([3]; 0.005 mg/kg, 8 hours): 11,454.0 pg/ml
G-CSF Serum Concentration ([3]; 0.005 mg/kg, 24 hours): 4,960.2 pg/ml
G-CSF Serum Concentration ([3]; 0.005 mg/kg, 48 hours): 686.4 pg/mL
G-CSF Serum Concentration ([3]; 0.05 mg/kg, 2 hours): 20,951.4 pg/ml
G-CSF Serum Concentration ([3]; 0.05 mg/kg, 8 hours): 70,012.8 pg/ml
G-CSF Serum Concentration ([3]; 0.05 mg/kg, 24 hours): 19,356.2 pg/ml
G-CSF Serum Concentration ([3]; 0.05 mg/kg, 48 hours): 1,963.0 pg/ml
G-CSF Serum Concentration ([3]; 0.05 mg/kg, 72 hours): 47.3 pg/mL
G-CSF protein expression detectable at least out to ([3]; 0.005 mg/kg): ≥ 48 h
G-CSF protein expression detectable at least out to ([3]; 0.05 mg/kg): ≥ 72 h
Average Protein Product, serum (human G-CSF) [4]: 45 pg/mL

Source: patent US20160193299A1, “MODIFIED NUCLEOSIDE, NUCLEOTIDE, AND NUCLEIC ACID COMPOSITIONS” (Moderna Therapeutics, Inc., priority 2011, published 2016)
